Measured values published in patent US20210388079A1.

Tests used:
[1] = molecular target: HLA-A*02/SPINK2-001 tetramer (human); test: flow cytometry, HLA-A*02/SPINK2-001 tetramer staining of TCR-RNA-electroporated CD8+ T-cells; mock cells 0.97%
[2] = molecular target: NYESO1-001 (tetramer, row label of Figure 31) (human); test: flow cytometry, HLA-A*02/NYESO1-001 tetramer staining of TCR-RNA-electroporated CD8+ T-cells; mock cells 1.09%

B1: TCR R49P2B7, alpha and beta chains expressed in human primary CD8+ T-cells by RNA electroporation (TCR, V domains shown)
V domain 1: AQSVTQLGSHVSVSEGALVLLRCNYSSSVPPYLFWYVQYPNQGLQLLLKYTTGATLVKGINGFEAEFKKSETSFHLTKPSAHMSDAAEYFCAVRIFGNEKLTFGTGTRLTIIP
V domain 2: DVKVTQSSRYLVKRTGEKVFLECVQDMDHENMFWYRQDPGLGLRLIYFSYDVKMKEKGDIPEGYSVSREKKERFSLILESASTNQTSMYLCASSLMGELTGELFFGEGSRLTVLE
In the case of B1, the % of CD8+ T-cells in the tetramer-positive gate [1] is reported as 30% and the % of CD8+ T-cells in the tetramer-positive gate [2] is reported as 0.96%.
